Laboratory results taken from article PMC8213806 (Nature Communications, 2021).

Legend:
Test in all cases: pull-down
Conditions in all cases: both partners purified
TcdB1 holotoxin Y603G = TcdB1 holotoxin Y603G (Clostridioides difficile (VPI10463 …, UniProt P18177 1-2366, Y603G))
TcdB1 holotoxin D1812G = TcdB1 holotoxin D1812G (Clostridioides difficile (VPI10463 …, UniProt P18177 1-2366, D1812G))
[1] = target: TcdB1 holotoxin V1816G/L1818G (Clostridioides difficile (VPI10463 …, UniProt P18177 1-2366, V1816G | L1818G))
TcdB1 holotoxin N1758A = TcdB1 holotoxin N1758A (Clostridioides difficile (VPI10463 …, UniProt P18177 1-2366, N1758A))
[2] = target: TcdB1 holotoxin L563G/I566G (Clostridioides difficile (VPI10463 …, UniProt P18177 1-2366, L563G | I566G))
TcdB1 holotoxin S567E = TcdB1 holotoxin S567E (Clostridioides difficile (VPI10463 …, UniProt P18177 1-2366, S567E))
[3] = target: TcdB1 holotoxin F1823G/I1825G/M1831G (Clostridioides difficile (VPI10463 …, UniProt P18177 1-2366, F1823G | I1825G | M1831G))
TcdB1 holotoxin Y621A = TcdB1 holotoxin Y621A (Clostridioides difficile (VPI10463 …, UniProt P18177 1-2366, Y621A))
TcdB1 holotoxin N1850A = TcdB1 holotoxin N1850A (Clostridioides difficile (VPI10463 …, UniProt P18177 1-2366, N1850A))

Measured: binding result

B1: Repeat1-Fc (CSPG4 Repeat1, residues 410–551, fused to the N-terminus of human IgG1 Fc) (Fc fusion)
chain: ELPEPCVPEPGLPPVFANFTQLLTISPLVVAEGGTAWLEWRHVQPTLDLMEAELRKSQVLFSVTRGARHGELELDIPGAQARKMFTLLDVVNRKARFIHDGSEDTSDQLVLEVSVTARVPMPSCLRRGQTYLLPIQVNPVND
notes: also called CSPG4 decoy; source: FreeStyle HEK 293 cells, secreted, purified (Ni-NTA); not shown: Fc (human IgG1), C-terminal, kept
binds: TcdB1 holotoxin Y603G | TcdB1 holotoxin D1812G | [1] | TcdB1 holotoxin N1758A | [2] | TcdB1 holotoxin S567E | [3] | TcdB1 holotoxin Y621A | TcdB1 holotoxin N1850A
